Experimental data from publication PMC9410896.

T1: MucR1 (Sinorhizobium fredii CCBAU45436, UniProt C3M8K5 1-143, A8T;V56I)
T1 sequence: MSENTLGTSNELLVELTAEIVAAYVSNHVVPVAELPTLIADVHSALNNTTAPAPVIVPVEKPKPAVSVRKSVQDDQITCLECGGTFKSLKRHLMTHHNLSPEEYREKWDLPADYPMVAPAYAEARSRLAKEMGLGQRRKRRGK

B1: motif_b1(2) (dsDNA)
DNA 1: GGTATTTTTTGGGGAATTGAAT
DNA 2: ATTCAATTCCCCAAAAAATACC
B2: spacer S4 (dsDNA)
DNA 1: AAACATTGACTGTATATAATTTTA
DNA 2: TAAAATTATATACAGTCAATGTTT
B3: motif_b5 (dsDNA)
DNA 1: TTTAAATCACCTATTTATATT
DNA 2: AATATAAATAGGTGATTTAAA
B4: motif_b3 (dsDNA)
DNA 1: ATGCTTCCAAGTTGTTTAGGT
DNA 2: ACCTAAACAACTTGGAAGCAT
B5: spacer S3 (dsDNA)
DNA 1: AATTATCGGGATCGGGGGATAATGACA
DNA 2: TGTCATTATCCCCCGATCCCGATAATT
B6: spacer S1 (primer name spacer2) (dsDNA)
DNA 1: GCCCAGTTCTACTCCATTTT
DNA 2: AAAATGGAGTAGAACTGGGC
B7: spacer S2 (primer name spacer1) (dsDNA)
DNA 1: GCCCAGTTCTACTCCATTTTTAGTAGAAA
DNA 2: TTTCTACTAAAAATGGAGTAGAACTGGGC
B8: motif_a1 (dsDNA)
DNA 1: GTTGTTTAGGTATTTTTTGGGGAATTGAAT
DNA 2: ATTCAATTCCCCAAAAAATACCTAAACAAC
B9: motif_b4 (dsDNA)
DNA 1: TTATATTGACCGACTGAGATA
DNA 2: TATCTCAGTCGGTCAATATAA
B10: motif_b7 (dsDNA)
DNA 1: ATTGATATATCCATAGACAAC
DNA 2: GTTGTCTATGGATATATCAAT
B11: motif_b6 (dsDNA)
DNA 1: ATAGACAACGCAAAGTATTGA
DNA 2: TCAATACTTTGCGTTGTCTAT
B12: motif_b8 (dsDNA)
DNA 1: CAATTGTATTGATATATCCAT
DNA 2: ATGGATATATCAATACAATTG

molecular target: T1, MucR1; test: EMSA

Binding result, binds:
B1, B2, B3, B4, B5, B6, B7, B8, B9, B10, B11

molecular target: T1, MucR1; test: EMSA; remark: another data set of the same source

Binding result, binds:
B12
